Experimental findings from publication PMC4641729, “NurA Is Endowed with Endo- and Exonuclease Activities that Are Modulated by HerA: New Insight into Their Role in DNA-End Processing” (PLoS ONE, 2015) are described below.

The chains are these.
T1: HerA (Sulfolobus solfataricus P2, UniProt Q97WG8 1-500)
T1 sequence: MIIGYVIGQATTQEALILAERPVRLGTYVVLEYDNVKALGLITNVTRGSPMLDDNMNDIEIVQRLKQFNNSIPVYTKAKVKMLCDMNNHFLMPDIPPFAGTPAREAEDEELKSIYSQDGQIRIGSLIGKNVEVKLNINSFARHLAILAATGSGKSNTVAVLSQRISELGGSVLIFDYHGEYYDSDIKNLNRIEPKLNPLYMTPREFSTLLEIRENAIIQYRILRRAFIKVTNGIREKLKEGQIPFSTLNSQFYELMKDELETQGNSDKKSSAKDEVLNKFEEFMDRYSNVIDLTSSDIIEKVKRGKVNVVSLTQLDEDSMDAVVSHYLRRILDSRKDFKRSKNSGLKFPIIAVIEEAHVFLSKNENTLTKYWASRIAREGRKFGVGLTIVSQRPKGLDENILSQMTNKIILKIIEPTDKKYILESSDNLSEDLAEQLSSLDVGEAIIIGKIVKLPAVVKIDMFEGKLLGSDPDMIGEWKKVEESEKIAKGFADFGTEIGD

B1: 70mer EMI fork (70leadCy5/70 lag emi) (mixed)
DNA 1: CGTGACTTGATGTTAACCCTAACCCTAAGAATTCGGCTTAAGTGAGTGTGAGGATATCATGTACGATAGC
DNA 2: CACACTCACTTAAGCCGAATTCTTAGGGTTAGGGTTAACATCAAGTCACG
B2: 70mer bubble (70leadCy5/70 lag bubble) (mixed)
DNA 1: B1 DNA 1
DNA 2: GCTATCGTACATGATATCCTCACACTTTTTTTTTTTTTTTTTTTTGGGTTAGGGTTAACATCAAGTCACG
B3: Sulfolobus solfataricus HerA (enzyme, UniProt Q97WG8 1-500, looked up)
chain: T1 sequence
notes: HerA ATPase, ORF SSO2251, Sulfolobus solfataricus strain P2; whole ORF amplified from genomic DNA with primers from the start codon to the stop codon, cloned BamHI/EcoRI into pet29a; 56 kDa as monomer; Hexamer in solution by gel filtration; Cloned at BamHI/EcoRI of pet29a, downstream of the vector's N-terminal S-tag; also called SSO2251; source: E. coli BL21-CodonPlus(DE3)-RIL, purified (heat …)
B4: Sulfolobus solfataricus NurA (enzyme, UniProt Q97WH1 1-339, looked up)
chain: MIRKIYDKLVESHNEIKNQIYNIANYLKQEIQDKVNEYWNEYVINHEQSETCKFVAIDGGSFGRPMRIGIVYAVGAESVIGDNKGVKTLSEDGQIGIFKPGNDAQERISLLMEALELSLALRDGSKGDYILMDGSLSKKIGNKVDIQQFSDEELKLIRNVDLNGIISIKDERKMRDLLMLLNQFLVSKIIEEYDGNVLWISKVSRGRDLFGTDYPDITVLELFTEKRGFSKLIIKNIDIEKISEIPEIEVLRKMEYTTFYTRLDNGKRVIRVDIVGRVDEKIVKEIMDRLSGVSIKGYPFPLLKAHMDVRFSAMDREKIIKLVGSKLHKDIEWWPSQFY
notes: NurA nuclease, ORF SSO2248, Sulfolobus solfataricus strain P2; whole ORF amplified from genomic DNA with primers from the start codon to the stop codon, cloned NdeI/BamHI into pet29a; 39 kDa as monomer; Dimer in solution by gel filtration; Cloned at NdeI with its own stop codon, so probably untagged (surmise); also called SSO2248; NurAwt; source: E. coli BL21-CodonPlus(DE3)-RIL, purified (heat …)

One data set concerns the target T1, HerA. The data set can be described thus: EMSA; 5 mM MgCl2, 2 mM EDTA; preferred substrate; EMSA: 20 mM HEPES/NaOH pH 7.5, 3.5 mM beta-mercaptoethanol, 50 mM NaCl, 5 mM MgCl2, 2 mM EDTA, 2 pmol DNA in 10 ul, 10 min at room temperature (NurA+HerA: 20 min at 70 C, then DNA 30 min at room temperature); 5% PAGE, 0.5x TBE. To be noted: protein: recombinant, cloned BamHI/EcoRI in pET29a, so a vector-derived N-terminal extension is possible, chain copies: 6. A general note: Mobility shift assays separate free from complexed probe on a gel.

Data set [1] deals with the molecule itself. The data set can be described thus: SEC; Superdex 200 10/300 GL gel filtration; 800 μg HerA and 200 μg NurA, separately or mixed, incubated at 60°C for 20 min before gel filtration; fractions analysed by SDS-PAGE.
The target of data set [2] is B3. Described as above. To be noted: both partners purified.

On to B1, for which the binding result with HerA (label: 5' Cy5 on strand 1, 3' overhang 20 nt on strand 1) is “binds”.

Take B2: in the data set with HerA (label: 5' Cy5 on strand 1, blunt ends, internal T-tract bubble), the binding result is on record as “binds”.

Take B3: the stoichiometry N (in general, the number of molecules, sites or subunits per partner or assembly) in data set [1] is 6.

For the molecule GACGTGGGCAAAGGTTCGTCAATGGACTGACAGCTGCATGG (ssDNA) [ODN2 (single-stranded)], in the data set with HerA (label: 5' Cy5, single strand), the binding result is recorded as “binds”.

Regarding B4, the “stoichiometry N” value in data set [1] turned out to be 2. Further, the binding result in data set [2] is recorded as “binds”.
